Assay results published in patent publication US20200247886A1 (ZLIP, published 2020).

How the values were obtained:
[1] = target: T1, human CD47 expressed on cells (CD47 expressing CHO cells, Jurkat, HL60, DLD1, Raji) (human, UniProt Q08722 19-292); test: EC50 (nM) as grade, flow cytometry, Fab on DLD1 cells; legend +: >60 nM
T1 construct: also called CHO-CD47; IAP

[2] = target: T1, human CD47 expressed on cells (CD47 …); test: EC50 (nM) as grade, flow cytometry, Fab on HL60 cells; legend +++: <1 nM
[3] = target: T2, biotin labelled polyhistidine tagged CD47 protein (Novoprotein, Cat#321) (human, UniProt Q08722 19-139, biotin labelled (site not stated)); test: IC50 (nM) as grade, Fab blocking biotinylated CD47 binding to SIRPα-CHO cells; legend ++: >10 nM and <65 nM
T2 construct: Bought protein; also called biotinylated CD47; biotinylated human CD47 protein; not shown: polyhistidine tag

[4] = target: T1, human CD47 expressed on cells (CD47 …); test: IC50 as grade, SIRPα blocking on Raji cells; legend ++: >1 nM and <20 nM
[5] = target: T1, human CD47 expressed on cells (CD47 …); test: IC50 as grade, SIRPα blocking on Raji cells; legend +: >20 nM
[6] = target: T1, human CD47 expressed on cells (CD47 …); test: flow cytometry on DLD1 cells, IgG, frequency
[7] = target: T1, human CD47 expressed on cells (CD47 …); test: flow cytometry on CD47 expressing CHO cells, MFI (FL-4)
[8] = target: T1, human CD47 expressed on cells (CD47 …); test: EC50 (nM) as grade, binding on CHO-CD47 cells; legend ++++: <0.05 nM
[9] = target: T3, CD47 protein (construct not stated; SPR antigen, CD47 coated ELISA plates) (Homo sapiens (Human), UniProt Q08722 19-139, limits assumed); test: SPR (Biacore T100), affinity (nM) as grade; legend +: >10 nM and <40 nM
T3 construct: also called the antigen

[10] = target: T1, human CD47 expressed on cells (CD47 …); test: EC50 (nM) as grade, binding on Jurkat cells; legend ++: >1 nM and <10 nM
[11] = target: T4, CHO/mCD47-GFP (mouse, UniProt Q61735); test: flow cytometry on CHO cells expressing mouse CD47-GFP, binding percentage
T4 construct: on the cell surface; also called mouse CD47 expressed on CHO cells; CHO cell expressing mouse CD47
T4 sequence (receptor, looked up): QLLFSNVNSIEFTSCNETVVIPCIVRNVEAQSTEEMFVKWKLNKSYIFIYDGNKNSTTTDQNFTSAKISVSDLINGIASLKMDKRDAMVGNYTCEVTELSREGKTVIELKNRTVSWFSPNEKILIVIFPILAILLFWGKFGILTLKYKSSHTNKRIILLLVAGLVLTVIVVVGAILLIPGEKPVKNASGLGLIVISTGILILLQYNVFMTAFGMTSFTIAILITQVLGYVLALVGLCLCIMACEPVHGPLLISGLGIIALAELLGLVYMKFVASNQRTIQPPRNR

[12] = target: T5, human CD47-Fc protein (Novoprotein, Cat#CG18) (human, UniProt Q08722 19-139); test: IC50 (nM) as grade, blocking of soluble CD47 binding to SIRPα-expressing CHO cells; legend ++: >1 nM and <10 nM
T5 construct: Bought protein; also called CD47-hFc; hCD47-hFc fusion protein; not shown: human IgG Fc of the bought fusion protein

[13] = target: T2, biotin labelled polyhistidine tagged …; test: flow cytometry blocking assay: antibody mixed with biotinylated human CD47 protein; blocked ligand SIRPα on cells; binding percentage
[14] = target: T1, human CD47 expressed on cells (CD47 …); test: EC50 (nM) as grade, binding on Jurkat cells; legend ++++: <0.05 nM
[15] = target: T1, human CD47 expressed on cells (CD47 …); test: flow cytometry on human red blood cells, donor 2, MFI; EC50 (nM) table beside the legend
[16] = target: T5, human CD47-Fc protein (Novoprotein, …); test: IC50 (nM) as grade, neutralizing ELISA, CD47-hFc on SIRPα coated plate; legend ++: >15 nM and <20 nM
[17] = target: T1, human CD47 expressed on cells (CD47 …); test: EC50 (nM) as grade, binding on Jurkat cells; legend +++: >0.05 nM and <1 nM
[18] = target: T5, human CD47-Fc protein (Novoprotein, …); test: IC50 (nM) as grade, neutralizing ELISA, CD47-hFc on SIRPα coated plate; legend +++: >8 nM and <15 nM
[19] = target: T5, human CD47-Fc protein (Novoprotein, …); test: IC50 (nM) as grade, blocking of soluble CD47 binding to SIRPα-expressing CHO cells; legend +++: >0.05 nM and <1 nM
[20] = target: T3, CD47 protein (construct not stated; SPR …); test: SPR (Biacore T100), affinity (nM) as grade; legend -: >40 nM
[21] = target: T1, human CD47 expressed on cells (CD47 …); test: EC50 (nM) as grade, binding on CHO-CD47 cells; legend +++: >0.05 nM and <1 nM

B1: ABU20 (Fab) (Fab, V domains shown)
VH: RGKVQESGPGLVKPSQSLSLTCSVTGYSITSGYYWNWIRQFPGNKLEWMGYINYDGSNNYNPSLKNRISITRDTSKNQFFLKLNSVTTEDTATYYCARGYYYGSSYGYWYFDVWGTGTTVTVSS
VL: DAVVTQESALTTSPGETVTLTCRSSTGAVTTNNYANWVQEKPDHLFTGLIGGTNNRAPGVPARFSGSLIGDKAALTITGAQTEDEAIYFCALWYSNHLVFGGGTKLTVL
notes: Phage-derived Fab: murine VL and VH fused to human CL and CH1
[1]
  EC50: > 60 nM
[2]
  EC50: < 1 nM
[3]
  IC50: 10 to 65 nM

B2: H-ABU 5 (antibody, V domains shown)
VH: QVQLVQSGAEVKKPGASVKVSCKASGYTFTDNYINWVRQAPGQRLEWMGWIYLGSGNTKYNEKFKGRVTITRDTSASTAYMELSSLRSEDTAVYYCARREERGFAVWGQGTLVTVSS
VL: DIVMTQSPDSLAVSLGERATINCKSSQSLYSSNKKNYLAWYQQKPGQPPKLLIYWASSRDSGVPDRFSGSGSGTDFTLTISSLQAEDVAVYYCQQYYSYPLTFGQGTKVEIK
[4]
  IC50: 1 to 20 nM

B3: H-ABU 3 (antibody, V domains shown)
VH: QVQLVQSGAEVKKPGASVKVSCKASGYTFTDSYINWVRQAPGQRLEWMGWIYTGSGNTKYNEKFKGRVTITRDTSASTAYMELSSLRSEDTAVYYCARREERGFAYWGQGTLVTVSS
VL: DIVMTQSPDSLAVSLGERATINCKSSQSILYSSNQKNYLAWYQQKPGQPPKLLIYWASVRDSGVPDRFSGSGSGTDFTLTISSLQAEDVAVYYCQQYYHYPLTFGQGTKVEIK
[5]
  IC50: > 20 nM

B4: Positive 2 (benchmark analogue antibody) (antibody, V domains shown)
VH: QVQLQQPGAELVKPGASVMMSCKASGYTFTNYNMHWVKQTPGQGLEWIGTIYPGNDDTSYNQKFKDKATLTADKSSSAAYMQLSSLTSEDSAVYYCARGGYRAMDYWGQTSVTVSS
VL: DVLMTQTPLSLPVSLGDQASISCRSSQSIVYSNGNTYLGWYLQKPGQSPKLLIYKVSNRFSGVPDRFSGSGSGTDFTLKISRVEAEDLGVYHCFQGSHVPYTFGGGTKVEIK
notes: also called Pos
[6]
  EC50 (read off the curve): ~2 nM
[7]
  EC50 (read off the curve): ~2 nM
[8]
  EC50: < 0.05 nM
[9]
  Affinity by SPR: 10 to 40 nM
[10]
  EC50: 1 to 10 nM
[11]
  binding result: no binding (tested: about 0.4 ug/ml)
[12]
  IC50: 1 to 10 nM
[13]
  IC50 (read off the curve): ~8 nM

B5: ABU3 (antibody, V domains shown)
VH: EVQLQQSGAELVKPGASVKLSCTASGFTIKDTYMHWVKQRPEQGLEWIGRIDPAKDNTKYDPKFQGKATITLDTSSNIAYLQLSSLTSEDTAVYFCARGHYGSSYVVYWGQGTLVTVSA
VL: NILMTQSPKSMSMSVGERVTLSCKASENVGTYVSWYQQKPDQSPKLLIYGASNRYTGVPDRFTGSGSATDFTLTISSVQAEDLADYHCGQSYSYPLTFGAGTKLELK
notes: Murine hybridoma monoclonal antibody
[14]
  EC50: < 0.05 nM
[8]
  EC50: < 0.05 nM
[9]
  Affinity by SPR: 10 to 40 nM
[11]
  binding result: no binding (tested: about 0.4 ug/ml)
[15]
  EC50: 1.47 nM
[16]
  IC50: 15 to 20 nM
[12]
  IC50: 1 to 10 nM

B6: ABU4 (antibody, V domains shown)
VH: QVQLQQSGPQLVRPGASVKISCKTSGYSFTNYWMQWVKQRPGQGLEWIGMIDPSDSESRLNQKFKDKATLTVDKSSSTAYMQLSSPTFEDSAVYYCARRGSPMITSFAYWGQGTLVTVSA
VL: DVQITQSPSFLAASPGETITINCRASKNIGKYLAWFQEKPGKTNKLLIYSGSTLQSGIPSRFSGSGSGTDFTLTISSLEPEDFAIYYCQQHNEYPYTFGGGTKLEIK
notes: as for B5
[8]
  EC50: < 0.05 nM
[9]
  Affinity by SPR: 10 to 40 nM
[17]
  EC50: 0.05 to 1 nM
[11]
  binding result: no binding (tested: about 0.4 ug/ml)
[15]
  EC50: 0.34 nM
[18]
  IC50: 8 to 15 nM
[19]
  IC50: 0.05 to 1 nM

B7: ABU1 (antibody, V domains shown)
VH: EVKLVESGGGLVQPGGSRKLSCAASGFTFSDYGMAWVRQAPGKGPECVAFISNLAKRIYYVDTVTGRFTISRENAKNTLYLEMSSLRSEDTAMYYCTRAYRYALDYWGQGTTLTVSS
VL: QIVLTQSPAIMSASPGEKVTMTCSASSSVSYMNWYQQKSGTSPKRWIYDTSKLASGVPARFSGSGSGTSYSLTISSMEAEDAATYYCQQWNSNPPTFGTGTKLELK
notes: as for B5
[20]
  Kd: > 40 nM
[17]
  EC50: 0.05 to 1 nM
[21]
  EC50: 0.05 to 1 nM
[11]
  binding result: no binding (tested: about 0.4 ug/ml)
[15]
  EC50: 0.12 nM
[12]
  IC50: 1 to 10 nM
